Here are results for 3 molecules from patent US20220098307A1 (WUHAN YZY BIOPHARMA, published 2022).

One experiment has as its target T1, Monkey CD3 (monkey).
T1 construct: whole, on cells; also called CD3 of monkey CD3 positive T cells
The experiment in a line: flow cytometry, monkey T cells. Background: Flow cytometry measures light scatter and fluorescence of single cells or particles in a stream.

The next experiment addresses T2, Human CD3ε (human, UniProt P07766 23-126).
T2 construct: CD3 on T cells isolated from human whole blood
The experiment in a line: flow cytometry, human T cells. In outline:
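Antibody titrations (11 points, 3-fold from 3000 nM) incubated 2 h at 4° C with 2×10⁵ target cells per well—T cells for CD3, antigen-positive tumor lines such as MM.1S or RPMI 8226 for CD38.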

The target in the next experiment is T3, Human BCMA (human, UniProt Q02223 1-54).
T3 sequence: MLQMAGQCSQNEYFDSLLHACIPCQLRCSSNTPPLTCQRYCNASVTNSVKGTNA
As to the kind of experiment: flow cytometry, human tumor cells (table of the BCMA series). An excerpt:
1) Cell preparation: T cells isolated from CD3-positive human whole blood were used for a CD3 end affinity detection of multifunctional antibody molecule; positive tumor cells of corresponding antigen were used for detecting affinity of tumor antigen; for example, CD38-positive MM. 1S cells (purchased from the Cell Resource Center of Shanghai Institutes for Biological Sciences, Chinese Academy of Sciences) or RPMI 8226 cells (purchased from the Cell Resource Center of Shanghai Institutes for Biological Sciences, Chinese Academy of Sciences) were used for CD38 antigen detection, and PD-L1 positive H358 cells (purchased from the Cell Resource Center of Shanghai Institutes for Biological Sciences, Chinese Academy of Sciences) were used for PD-L1 antigen detection, and so on. The cells were resuspended with 1% FBS-PBS, adjusted to a density of 4×10⁶/ml, and 50 μl of cells were taken from each well, and then plated at 2×10⁵ per well. Cell plating was operated on ice
2) Addition of the antibody: according to the experimental design, the antibody was diluted gradually, and dilution of antibody was operated on ice. For example, the initial concentration of antibody for dilution was 3000 nM, and the antibody was diluted by 3 times with 11 concentration gradients. The diluted antibody was added to a cell well at 50 μl per well, mixed well, and shaked and incubated at 4° C. 1100 rpm/min for 2 h; after washing, the cells were resuspend in 1% FBS-PBS, and a diluted secondary antibody PE anti-human IgG FC (Biolegend, 409304) was added with a final concentration of 8 ug/ml and a volume of 50 μl/well. At the same time, a well only added with cells and secondary antibody was set as a control, the components were mixed well, and incubated under shaking at 1100 rpm/min at 4° C. for 1 h;
5) Data analysis: the data was analyzed by a flow analysis software FlowJo 7.6 thereby obtaining an average fluorescence intensity of the specific antibody concentration, plotted by a Graphpad Prism 5 with the antibody concentration (nM) as an abscissa and the average fluorescence intensity as an ordinate; the EC50 value was calculated by the method of One site—Specific binding, and the EC50 value indicated the cell affinity of the antibody to the corresponding target antigen.

B1: M2IC-FES (bispecific antibody, human IgG1, kappa)
chain: EVKLDETGGGLVQPGRPMKLSCVASGFTFSDYWMNWVRQSPEKGLEWVAQIRNKPYNYETYYSDSVKGRFTISRDDSKSSVYLQMNNLRVEDMGIYYCTGSYYGMDYWGQGTSVTVSSASTKGPSVFPLAPSSKSTSGGTAALGCLVKDYFPEPVTVSWNSGALTSGVHTFPAVLQSSGLYSLSSVVTVPSSSLGTQTYICNVNHKPSNTKVDKKVEPKSCDKTHTGGGSAAAQVQLVESGGGVVQPGRSLRLSCAASGFTFSTYAMNWVRQAPGKGLEWVARIRSKYNNYATYYADSVKDRFTISRDDSKNTLYLQMNSLRAEDTAVYYCARHGNFGNSYVSWFAYWGQGTLVTVSSGGGGSGGGGSGGGGSQTVVTQEPSLTVSPGGTVTLTCRSSTGAVTTSNYANWVQQKPGQAPRGLIGGTNKRAPGVPARFSGSLLGGKAALTLSGVQPEDEAEYYCALWYSNLWVFGGGTKVEIKGGGGSDKTHTCPPCPAPEFEGGPSVFLFPPKPKDTLMISRTPEVTCVVVDVSHEDPEVKFNWYVDGVEVHNAKTKPREEQYNSTYRVVSVLTVLHQDWLNGKEYKCKVSNKALPASIEKTISKAKGQPREPQVYTLPPCRDELTKNQVSLWCLVKGFYPSDIAVEWESNGQPENNYKTTPPVLDSDGSFFLYSKLTVDKSRWQQGNVFSCSVMHEALHNHYTQKSLSLSPGK
heavy: EVKLDETGGGLVQPGRPMKLSCVASGFTFSDYWMNWVRQSPEKGLEWVAQIRNKPYNYETYYSDSVKGRFTISRDDSKSSVYLQMNNLRVEDMGIYYCTGSYYGMDYWGQGTSVTVSSASTKGPSVFPLAPSSKSTSGGTAALGCLVKDYFPEPVTVSWNSGALTSGVHTFPAVLQSSGLYSLSSVVTVPSSSLGTQTYICNVNHKPSNTKVDKKVEPKSCDKTHTCPPCPAPEFEGGPSVFLFPPKPKDTLMISRTPEVTCVVVDVSHEDPEVKFNWYVDGVEVHNAKTKPREEQYNSTYRVVSVLTVLHQDWLNGKEYKCKVSNKALPASIEKTISKAKGQPREPQVCTLPPSRDELTKNQVSLSCAVKGFYPSDIAVEWESNGQPENNYKTTPPVLDSDGSFFLVSKLTVDKSRWQQGNVFSCSVMHEALHNRFTQKSLSLSPGK
light: DVVMTQTPLSLPVSLGDQASISCRSSQSLVHSNGNTYLRWYLQKPGQSPKVLIYKVSNRFSGVPDRFSGSGSGTDFTLKISRVEAEDLGVYFCSQSTHVPWTFGGGTKLEIKRTVAAPSVFIFPPSDEQLKSGTASVVCLLNNFYPREAKVQWKVDNALQSGNSQESVTEQDSKDSTYSLSSTLTLSKADYEKHKVYACEVTHQGLSSPVTKSFNRGEC
notes: structure 2 isotype control; CH2 FES
By EC50 is commonly meant the concentration that produces a half-maximal response. For the molecule B1, the values for the EC50 with Monkey CD3 and with Human CD3ε were 506 nM and 411 nM, respectively. Besides, the binding result with Human BCMA is on record as “no binding”.

B2: M2IC-G2 (bispecific antibody, human IgG1, kappa)
chain: EVKLDETGGGLVQPGRPMKLSCVASGFTFSDYWMNWVRQSPEKGLEWVAQIRNKPYNYETYYSDSVKGRFTISRDDSKSSVYLQMNNLRVEDMGIYYCTGSYYGMDYWGQGTSVTVSSASTKGPSVFPLAPSSKSTSGGTAALGCLVKDYFPEPVTVSWNSGALTSGVHTFPAVLQSSGLYSLSSVVTVPSSSLGTQTYICNVNHKPSNTKVDKKVEPKSCDKTHTGGGSAAAQVQLVESGGGVVQPGRSLRLSCAASGFTFSTYAMNWVRQAPGKGLEWVARIRSKYNNYATYYADSVKDRFTISRDDSKNTLYLQMNSLRAEDTAVYYCARHGNFGNSYVSWFAYWGQGTLVTVSSGGGGSGGGGSGGGGSQTVVTQEPSLTVSPGGTVTLTCRSSTGAVTTSNYANWVQQKPGQAPRGLIGGTNKRAPGVPARFSGSLLGGKAALTLSGVQPEDEAEYYCALWYSNLWVFGGGTKVEIKGGGGSDKTHTCPPCPAPPVAGPSVFLFPPKPKDTLMISRTPEVTCVVVDVSHEDPEVQFNWYVDGVEVHNAKTKPREEQFNSTFRVVSVLTVVHQDWLNGKEYKCKVSNKGLPAPIEKTISKTKGQPREPQVYTLPPCRDELTKNQVSLWCLVKGFYPSDIAVEWESNGQPENNYKTTPPVLDSDGSFFLYSKLTVDKSRWQQGNVFSCSVMHEALHNHYTQKSLSLSPGK
heavy: EVKLDETGGGLVQPGRPMKLSCVASGFTFSDYWMNWVRQSPEKGLEWVAQIRNKPYNYETYYSDSVKGRFTISRDDSKSSVYLQMNNLRVEDMGIYYCTGSYYGMDYWGQGTSVTVSSASTKGPSVFPLAPSSKSTSGGTAALGCLVKDYFPEPVTVSWNSGALTSGVHTFPAVLQSSGLYSLSSVVTVPSSSLGTQTYICNVNHKPSNTKVDKKVEPKSCDKTHTCPPCPAPPVAGPSVFLFPPKPKDTLMISRTPEVTCVVVDVSHEDPEVQFNWYVDGVEVHNAKTKPREEQFNSTFRVVSVLTVVHQDWLNGKEYKCKVSNKGLPAPIEKTISKTKGQPREPQVCTLPPSRDELTKNQVSLSCAVKGFYPSDIAVEWESNGQPENNYKTTPPVLDSDGSFFLVSKLTVDKSRWQQGNVFSCSVMHEALHNRFTQKSLSLSPGK
light: DVVMTQTPLSLPVSLGDQASISCRSSQSLVHSNGNTYLRWYLQKPGQSPKVLIYKVSNRFSGVPDRFSGSGSGTDFTLKISRVEAEDLGVYFCSQSTHVPWTFGGGTKLEIKRTVAAPSVFIFPPSDEQLKSGTASVVCLLNNFYPREAKVQWKVDNALQSGNSQESVTEQDSKDSTYSLSSTLTLSKADYEKHKVYACEVTHQGLSSPVTKSFNRGEC
notes: structure 2 isotype control; CH2 G2CH2
As for B2, the EC50 was 488 nM with Monkey CD3 and 408 nM with Human CD3ε. In addition, the binding result in the experiment with Human BCMA is “no binding”.

B3: M2IC-NA (bispecific antibody, human IgG1, kappa, N297A)
chain: EVKLDETGGGLVQPGRPMKLSCVASGFTFSDYWMNWVRQSPEKGLEWVAQIRNKPYNYETYYSDSVKGRFTISRDDSKSSVYLQMNNLRVEDMGIYYCTGSYYGMDYWGQGTSVTVSSASTKGPSVFPLAPSSKSTSGGTAALGCLVKDYFPEPVTVSWNSGALTSGVHTFPAVLQSSGLYSLSSVVTVPSSSLGTQTYICNVNHKPSNTKVDKKVEPKSCDKTHTGGGSAAAQVQLVESGGGVVQPGRSLRLSCAASGFTFSTYAMNWVRQAPGKGLEWVARIRSKYNNYATYYADSVKDRFTISRDDSKNTLYLQMNSLRAEDTAVYYCARHGNFGNSYVSWFAYWGQGTLVTVSSGGGGSGGGGSGGGGSQTVVTQEPSLTVSPGGTVTLTCRSSTGAVTTSNYANWVQQKPGQAPRGLIGGTNKRAPGVPARFSGSLLGGKAALTLSGVQPEDEAEYYCALWYSNLWVFGGGTKVEIKGGGGSDKTHTCPPCPAPELLGGPSVFLFPPKPKDTLMISRTPEVTCVVVDVSHEDPEVKFNWYVDGVEVHNAKTKPREEQYASTYRVVSVLTVLHQDWLNGKEYKCKVSNKALPAPIEKTISKAKGQPREPQVYTLPPCRDELTKNQVSLWCLVKGFYPSDIAVEWESNGQPENNYKTTPPVLDSDGSFFLYSKLTVDKSRWQQGNVFSCSVMHEALHNHYTQKSLSLSPGK
heavy: EVKLDETGGGLVQPGRPMKLSCVASGFTFSDYWMNWVRQSPEKGLEWVAQIRNKPYNYETYYSDSVKGRFTISRDDSKSSVYLQMNNLRVEDMGIYYCTGSYYGMDYWGQGTSVTVSSASTKGPSVFPLAPSSKSTSGGTAALGCLVKDYFPEPVTVSWNSGALTSGVHTFPAVLQSSGLYSLSSVVTVPSSSLGTQTYICNVNHKPSNTKVDKKVEPKSCDKTHTCPPCPAPELLGGPSVFLFPPKPKDTLMISRTPEVTCVVVDVSHEDPEVKFNWYVDGVEVHNAKTKPREEQYASTYRVVSVLTVLHQDWLNGKEYKCKVSNKALPAPIEKTISKAKGQPREPQVCTLPPSRDELTKNQVSLSCAVKGFYPSDIAVEWESNGQPENNYKTTPPVLDSDGSFFLVSKLTVDKSRWQQGNVFSCSVMHEALHNRFTQKSLSLSPGK
light: DVVMTQTPLSLPVSLGDQASISCRSSQSLVHSNGNTYLRWYLQKPGQSPKVLIYKVSNRFSGVPDRFSGSGSGTDFTLKISRVEAEDLGVYFCSQSTHVPWTFGGGTKLEIKRTVAAPSVFIFPPSDEQLKSGTASVVCLLNNFYPREAKVQWKVDNALQSGNSQESVTEQDSKDSTYSLSSTLTLSKADYEKHKVYACEVTHQGLSSPVTKSFNRGEC
notes: structure 2 isotype control; CH2 N297A
For the molecule B3, the results for the EC50 with Monkey CD3 and with Human CD3ε were 561 nM and 547 nM, respectively. Moreover, the binding result in the experiment with Human BCMA is listed as “no binding”.
